Measurements: patent publication US20230111363A1 (LMMUNOMETABOLISM DEVELOPMENT, published 2023)

T1: human monocarboxylate transporter 1 (MCT1) (human, UniProt P53985 1-500)
T1 sequence: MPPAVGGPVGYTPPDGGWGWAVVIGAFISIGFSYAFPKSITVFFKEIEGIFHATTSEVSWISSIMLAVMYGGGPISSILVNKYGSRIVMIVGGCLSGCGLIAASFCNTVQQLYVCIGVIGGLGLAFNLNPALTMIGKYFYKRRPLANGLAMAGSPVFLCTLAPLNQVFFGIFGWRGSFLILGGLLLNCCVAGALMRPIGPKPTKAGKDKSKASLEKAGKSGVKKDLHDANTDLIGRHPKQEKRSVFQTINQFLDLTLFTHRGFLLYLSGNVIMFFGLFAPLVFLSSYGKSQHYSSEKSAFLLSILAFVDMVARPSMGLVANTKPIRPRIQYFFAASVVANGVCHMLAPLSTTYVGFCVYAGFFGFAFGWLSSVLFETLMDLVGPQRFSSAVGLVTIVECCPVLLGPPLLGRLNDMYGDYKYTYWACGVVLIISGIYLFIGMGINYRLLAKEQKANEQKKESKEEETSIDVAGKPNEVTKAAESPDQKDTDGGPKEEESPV


Experiments:
[1] = target: T2, human FcγRI (CD64) extracellular domain (human, UniProt P12314 16-292); assay: SPR (Biacore T100), antibody captured on Protein A, FcγR ECD as analyte, 25 C
T2 construct: extracellular domain; also called FcγRI ECD
Protocol: Unreacted sites were blocked with a 7 minute injection of ethanolamine at 10 μL/minute. […] FC1 was the reference FC, therefore no antibody was captured in FC1. […] Regeneration was performed by injecting 15 μL of 10 mM glycine, pH 1.5, at 30 μL/minute over all FCs. […] The affinity (KD) was calculated using either steady state equilibrium analysis with the Scrubber 2 Biacore Evaluation Software or a “1:1 (Langmuir) binding” model in BIA Evaluation. […] Duplicate injections of each concentration were injected over all FCs at 40 μL/minute for 60 seconds followed by a 120 second dissociation phase. […] The affinity (KD) was calculated using the steady state equilibrium analysis with the Scrubber 2 Biacore Evaluation Software.

[2] = target: T1, human monocarboxylate transporter 1 …; assay: cell-based or functional assay
[3] = target: T1, human monocarboxylate transporter 1 …; assay: competition MSD binding assay, antibody titrated with HEK WT cells expressing MCT1, apparent KD, 37 C, average of triplicate
Text: Plates were then washed 3 times with PBST. […] Plates were washed 3 times with PBST.

[4] = target: T3, Human C1q (human, UniProt P02745 23-245; P02746 28-253; P02747 29-245); assay: ELISA, antibody coated on plate, human C1q detected with anti-human C1q-HRP (results not shown)
T3 construct: Bought (MS Biomedical); also called complement component C1q

[5] = target: T1, human monocarboxylate transporter 1 …; assay: cell-based or functional assay; remark: listed apart in the source
[6] = target: T1, human monocarboxylate transporter 1 …; assay: competition MSD binding assay, antibody titrated with HEK WT cells expressing MCT1, apparent KD, screening at 25 C
Protocol: The mix was incubated at 37° C. for 1-2 days. After incubation, the incubated samples were spun down for 5 min at 500×g to remove cells. A 96-well multi-array plate (Meso Scale Diagnostics, Cat. #L15XA-3) was coated at 4° C. overnight with 1 μg/mL of goat anti human FC in phosphate buffered saline (PBS). Following coating, plates were washed 3 times with 150 μL PBST (PBS with 0.05% Tween 20) and blocked with 150 μL/well of PBS 3% blocker A buffer (Cat #R93BA-1) at 25° C. for 1 hr. Plates were then washed 3 times with PBST. 50 μL of the preincubated antibody: cell dilution series was transferred to the wells and incubated at 25° C. with 700 rpm shaking for 1 hr. Plates were washed 3 times with PBST. Then 100 μL of 1 μg/mL anti-human kappa-biotin antibody (Cat. #2060-08) was added, and plates were incubated at 25° C. with 700 rpm shaking […]. Plates were washed 3 times with PBST, followed by addition of 100 μL of 1 μg/mL MSD Sulfo-tag streptavidin antibody (Meso Scale Diagnostics Cat. #R32 AD1), and plates were incubated at 25° C. with 700 rpm shaking for 1 hr. Plates were washed 3 times with PBST, 150 μL/well of 1× Read Buffer T was added to the wells and analyzed on a SECTOR® Imager 6000 (Meso Scale Diagnostics) 15 min after buffer addition. The apparent KD is determined by fitting a sigmoidal curve to the electrochemiluminescence (ECL) response vs. log (MCT1 receptor concentration) using assay development tool kit graphed with normalized ECL values.

[7] = target: T1, human monocarboxylate transporter 1 …; assay: cell-based or functional assay; remark: listed apart in the source

T2 sequence (P12314 16-292): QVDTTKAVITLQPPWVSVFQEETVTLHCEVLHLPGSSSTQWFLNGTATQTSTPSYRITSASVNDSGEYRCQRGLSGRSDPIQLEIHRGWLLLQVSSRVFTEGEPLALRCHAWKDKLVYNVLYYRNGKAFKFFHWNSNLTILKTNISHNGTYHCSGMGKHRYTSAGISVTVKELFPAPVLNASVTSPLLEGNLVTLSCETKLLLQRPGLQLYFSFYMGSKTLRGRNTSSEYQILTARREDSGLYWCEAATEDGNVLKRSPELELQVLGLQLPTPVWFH
T3 sequence (P02745 23-245 limits assumed, chain 1 of 3): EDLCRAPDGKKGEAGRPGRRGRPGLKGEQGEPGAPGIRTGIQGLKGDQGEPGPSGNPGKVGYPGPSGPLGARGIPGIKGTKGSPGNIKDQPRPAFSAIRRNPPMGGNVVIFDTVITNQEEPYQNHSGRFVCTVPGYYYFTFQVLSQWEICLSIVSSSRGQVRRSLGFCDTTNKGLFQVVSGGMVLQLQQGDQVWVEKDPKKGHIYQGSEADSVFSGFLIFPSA
T3 sequence (P02746 28-253 limits assumed, chain 2 of 3): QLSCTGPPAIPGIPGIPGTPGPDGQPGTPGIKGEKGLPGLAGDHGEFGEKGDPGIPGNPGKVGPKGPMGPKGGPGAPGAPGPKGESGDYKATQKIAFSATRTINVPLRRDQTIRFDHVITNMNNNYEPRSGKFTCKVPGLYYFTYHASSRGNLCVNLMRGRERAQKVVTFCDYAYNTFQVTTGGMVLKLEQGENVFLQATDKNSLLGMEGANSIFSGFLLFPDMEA
T3 sequence (P02747 29-245 limits assumed, chain 3 of 3): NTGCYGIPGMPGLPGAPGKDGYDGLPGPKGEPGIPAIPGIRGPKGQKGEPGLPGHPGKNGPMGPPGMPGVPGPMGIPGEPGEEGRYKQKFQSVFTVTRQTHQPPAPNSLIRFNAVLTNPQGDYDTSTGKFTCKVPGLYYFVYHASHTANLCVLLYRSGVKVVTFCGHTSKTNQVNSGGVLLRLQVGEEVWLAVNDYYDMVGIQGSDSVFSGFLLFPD

binding result [1]	IC50 of inhibition of MCT1 mediated transport (bromopyruvate assay, HEK293T cells) [2]	Kd [3]	binding result [4]	IC50 of inhibition of CD4 T cell proliferation [5]	IC50 of inhibition of CD8 T cell proliferation [5]	Kd [6]	IC50 of inhibition of B cell proliferation, Average of 3 donors [7]	IC50 of inhibition of B cell proliferation, Donor1 [7]	IC50 of inhibition of B cell proliferation, Donor3 [7]	Binder
no binding (tested: 200 nM)	–	–	–	–	–	–	–	–	–	INX444 IgG1EN (antibody, INX444 of WO19136300 converted to the IgG1EN backbone (L234A, L235E, G237A, A330S, P331S, EU numbering)) heavy: QVQLKESGPGLVKPSQTLSLTCTVSGFSLTNYHLQWVRQPPGKGLEWIGFIRSSGNTEYNPSLKSRVTISRDTSKNQVSLKLSSVTAADTAVYYCARKRWVHGTWYSPGYYVMDAWGQGTLVTVSSASTKGPSVFPLAPSSKSTSGGTAALGCLVKDYFPEPVTVSWNSGALTSGVHTFPAVLQSSGLYSLSSVVTVPSSSLGTQTYICNVNHKPSNTKVDKRVEPKSCDKTHTCPPCPAPEAEGAPSVFLFPPKPKDTLMISRTPEVTCVVVDVSHEDPEVKFNWYVDGVEVHNAKTKPREEQYNSTYRVVSVLTVLHQDWLNGKEYKCKVSNKALPSSIEKTISKAKGQPREPQVYTLPPSREEMTKNQVSLTCLVKGFYPSDIAVEWESNGQPENNYKTTPPVLDSDGSFFLYSKLTVDKSRWQQGNVFSCSVMHEALHNHYTQKSLSLSPGK light: DIQLTQSPSAMSASVGDRVTITCRASQGISNYLAWYQQKPGKAPKLLIYAASTLQSGVASRFSGRGSGTDFTLTISSLQPEDFATYYCQQSDILPYTFGQGTKVEIKRTVAAPSVFIFPPSDEQLKSGTASVVCLLNNFYPREAKVQWKVDNALQSGNSQESVTEQDSKDSTYSLSSTLTLSKADYEKHKVYACEVTHQGLSSPVTKSFNRGEC
–	25 nM	0.59 nM	no binding	3 nM	3 nM	1.27 nM	2.95 nM	3.06 nM	3.38 nM	anti-human MCT1 antibody Ab6 (antibody, human IgG1, kappa, IgG1EN backbone) heavy: QVQLVQSGAEVKKPGASVKVSCTVSGRSLTNYHLQWVRQAPGQGLEWMGFIRSSGNTEYNSRFKSRVTMTRDTSTSTVYMELSSLRSEDTAVYYCARNRWYHGTYYSPGYYVMDAWGQGTLVTVSSASTKGPSVFPLAPSSKSTSGGTAALGCLVKDYFPEPVTVSWNSGALTSGVHTFPAVLQSSGLYSLSSVVTVPSSSLGTQTYICNVNHKPSNTKVDKRVEPKSCDKTHTCPPCPAPEAEGAPSVFLFPPKPKDTLMISRTPEVTCVVVDVSHEDPEVKFNWYVDGVEVHNAKTKPREEQYNSTYRVVSVLTVLHQDWLNGKEYKCKVSNKALPSSIEKTISKAKGQPREPQVYTLPPSREEMTKNQVSLTCLVKGFYPSDIAVEWESNGQPENNYKTTPPVLDSDGSFFLYSKLTVDKSRWQQGNVFSCSVMHEALHNHYTQKSLSLSPGK light: EIVLTQSPGTLSLSPGERATLSCKGSQNIENYLAWYQQKPGQAPRLLIYNRHNLQTGIPDRFSGSGSGTDFTLTISRLEPEDFAVYYCYQYSDGYTFGGGTKVEIKRTVAAPSVFIFPPSDEQLKSGTASVVCLLNNFYPREAKVQWKVDNALQSGNSQESVTEQDSKDSTYSLSSTLTLSKADYEKHKVYACEVTHQGLSSPVTKSFNRGEC
